Experimental data taken from patent US7049079B1, “Coupling factor 6 inhibitor and potentiator and use thereof” (Daiichi Suntory Pharma Co.,Ltd., priority 1999, dated 2006).

Key:
[1] = tested on: release of arachidonic acid from HUVEC (PLA2); experiment: Release of [3H]-labeled arachidonic acid from HUVEC; format: cell-based, human; details: for inhibition of release of arachidonic acid from HUVEC by PLA2 inhibitors: 40 μM AACOCF3, 1 μM OPC, 1 μM BEL
Procedure: HUVEC were cultured for 24 hours in the presence of [^3H]-labeled arachidonic acid. Then the medium was replaced by DMEM and the culture was continued in the presence of […] of CF6 at 37° C. for an additional 30 minutes. Then the release of the [^3H]-labeled arachidonic acid into the liquid culture was examined. […] The same test was carried out in the presence of 1 μM of bradykinin.
Next, the effects of a cPLA2 inhibitor (40 μM of AACOCF3: arachidonic acid […]), an sPLA2 inhibitor (1 μM of OPC; oleyloxyethylphosphorylcholine) and an iPLA2 inhibitor (1 μM of BEL: […]) of inhibiting the release of arachidonic acid form HUVEC were examined. […] Namely, the PLA2 participating in the release of arachidonic acid is cPLA2 (FIGS. 20 and 21).

[2] = tested on: spontaneously hypertensive rats (SHR); experiment: Arterial blood pressure of anesthetized SHR, measured in the open manner from the carotid artery; format: in vivo, rat; details: SHR 15 weeks of age; rCF6 0.3, 1.0, 3.0 μg/kg bolus into femoral vein
Procedure: (§1) Blood pressure was measured in the open manner by inserting catheters directly into the aorta of rats anesthetized with 75 mg/kg of ketamine and 15 mg/kg of xylazine hydrochloride. Namely, two polyethylene catheters filled with physiological saline containing 20 U/ml of heparin were inserted respectively into the left carotid artery and the left femoral vein. Then the catheter inserted into the left carotid artery was connected to a pressure detector (Carrier Amplifier AP-601G, Nihon Kohden Co.). Each sample was dissolved in 200 μL of physiological saline and then administered via the vena cava.
(§2) SHR and WKY each 16 weeks of age were anesthetized and the anti-rCF6 antibody (0.3, 1.0 and 3.0 μg/kg) was administered by bolus injection into the femoral vein. Then the arterial blood pressure was measured in the open manner from the carotid artery.
(§3) Effects of the anti-rCF6 antibody on the effect of bradykinin of lowering rat blood pressure were examined. SHR and WKY each 16 weeks of age were anesthetized and bradykinin (0.3, 1.0 and 3.0 μg/kg) was cumulatively administered by bolus injection into the femoral vein. Then the arterial blood pressure was measured in the open manner from the carotid artery. […]
(§4) Effects of rCF6 on rat blood pressure were examined. […] Then the arterial blood pressure was measured in an open manner from the carotid artery.

[3] = tested on: PGI2 production of human umbilical venal endothelial cells (HUVEC); experiment: Inhibition of PGI2 production (6-keto-PGF1α secreted into the medium) in HUVEC; format: cell-based
Procedure: The activity of inhibiting the PGI2 production was evaluated by measuring the stable metabolite of PGI2 (6-keto-PGF1α) secreted into the medium of smooth muscle cells collected from SHR mesenteric artery or human umbilical venal endothelial cells (HUVEC). Namely, the smooth muscle cells collected from SHR mesenteric artery were subcultured in a Dulbecco's modified Eagle medium (DMEM) containing 10% (v/v) of fetal calf serum until these cells attained the confluent state. HUVEC were proliferated in a synthetic medium (HuMedia, Kurabo Industries) containing 2% (v/v) of fetal calf serum, 10 ng/ml of EGF, 5 ng/ml of bFGF, 1 μg/ml of hydrocortisone and 10 μg/ml of heparin. The smooth muscle cells collected from SHR mesenteric artery or HUVEC were incubated for 30 minutes in the DMEM medium containing the sample to be analyzed and 6-keto-PGF1α secreted into the medium during the incubation period was determined.
HUVEC were cultured at 37° C. for 30 minutes in the DMEM containing 1, 10 and 100 nM of rCF6 prepared in Referential Example 2 and thus the inhibition of the PGI2 production by CF6 was examined. The production of PGI2 was measured with the guidance of the amount of 6-keto-PGF1α, which is a stable metabolite of PGI2, secreted into the medium. […] The same test was carried out in the presence of 1 μM of bradykinin.
Further, 10 nM of CF6 inhibited the increase in the PGI2 production due to 2 μg/ml of ionomycin but not the increase therein due to 10 ng/ml of arachidonic acid and 10 ng/ml of PGH2.

[4] = tested on: rats with normal blood pressure (WKY); experiment: Arterial blood pressure of anesthetized WKY, measured in the open manner from the carotid artery; format: in vivo, rat; details: WKY 15 weeks of age; rCF6 0.3, 1.0, 3.0 μg/kg bolus into femoral vein
Procedure: as §1, §2, §3, §4

Molecule: O=C1O/C(=C/Br)CCC1c1cccc2ccccc12 (stereo not drawn) [BEL, bromoenolcholine]
- inhibition of release of arachidonic acid from HUVEC by PLA2 inhibitors [1]: cPLA2 inhibitor alone inhibited

Molecule: CCCCCCCC/C=C\CCCCCCCCOCCOP(=O)([O-])OCC[N+](C)(C)C [OPC, oleyloxyethylphosphorylcholine]
- inhibition of release of arachidonic acid from HUVEC by PLA2 inhibitors [1]: cPLA2 inhibitor alone inhibited

Molecule: CCCCC/C=C\C/C=C\C/C=C\C/C=C\CCCC(=O)C(F)(F)F [AACOCF3, arachidonic acid 3-fluoromethyl ketone]
- inhibition of release of arachidonic acid from HUVEC by PLA2 inhibitors [1]: inhibited the release of arachidonic acid

B1: rCF6: rat coupling factor 6, a 76 amino acid subunit of H+ ATP synthase (SEQ ID NO:2), recombinantly produced (protein)
chain: NKELDPVQKLFLDKIREYKAKRLASGGPVDTGPEYQQEVDRELFKLKQMYGKGEMDKFPTFNFEDPKFEVLDKPQS
modifications: Rat
- average arterial blood pressure [2]: dose-dependently increased
- increase in PGI2 production due to PGH2 ([3]; 10 nM CF6, 10 ng/ml PGH2): not
- increase in PGI2 production due to arachidonic acid ([3]; 10 nM CF6, 10 ng/ml arachidonic acid): not
- increase in PGI2 production due to ionomycin ([3]; 10 nM CF6, 2 μg/ml ionomycin): inhibited
- PGI2 production (6-keto-PGF1α) ([3]; HUVEC, 1, 10 and 100 nM rCF6, 37° C., 30 minutes): dose-dependently inhibited
- increase in PGI2 production due to bradykinin ([3]; HUVEC, 1, 10 and 100 nM rCF6, in the presence of 1 μM bradykinin): dose-independently inhibited
- average arterial blood pressure [4]: dose-dependently increased
- release of [3H]-labeled arachidonic acid ([1]; HUVEC, 1, 10 and 100 mM CF6, 37° C., 30 minutes): dose-dependently inhibited
- bradykinin-promoted release of [3H]-labeled arachidonic acid ([1]; HUVEC, CF6 1, 10 and 100 mM, in the presence of 1 μM bradykinin): dose-dependently inhibited
